The values below come from the Immune Epitope Database (IEDB).

One assay concerns the target HLA-A*01:01. Put plainly: IEDB peptide-MHC binding, purified MHC/direct/fluorescence; filed as Kd, often an IC50 or EC50 that approximates it; ≥ and ≤ were set here for values at or beyond the usual limits of such assays. The note with it: source organism: Orthohantavirus andesense.
A further assay has as its target HLA-A*02:01. The description is as above.
The target in another assay is HLA-A*02:12. Described as above.
Another assay addresses HLA-A*03:01. Described as above.
The next assay addresses HLA-A*11:01. The assay is described as above. The note with it: source organism: Orthohantavirus andesense.
Another assay deals with HLA-A*23:01. The description is as above.
For another assay, the target named is HLA-A*24:03. Described as above.
Another assay addresses HLA-A*29:02. The assay is described as above.
The target in another assay is HLA-A*31:01. The description is as above. The note with it: source organism: Orthohantavirus andesense.
Another assay concerns the target HLA-A*68:02. The assay is described as above.
The next assay addresses HLA-A*69:01. The assay is described as above.
In a further assay the target is HLA-B*07:02. Described as above. The note with it: source organism: Orthohantavirus andesense.
The target of the next assay is HLA-B*08:01. Described as above. The note with it: source organism: Orthohantavirus andesense.
A further assay has as its target HLA-B*15:01. Described as above.
A further assay addresses HLA-B*18:01. The assay is described as above.
In another assay the target is HLA-B*27:05. The assay is described as above. The note with it: source organism: Orthohantavirus andesense.
The next assay has as its target HLA-B*40:01. The description is as above. The note with it: source organism: Orthohantavirus andesense.
The target in another assay is HLA-B*44:02. The assay is described as above. The note with it: source organism: Orthohantavirus andesense.
Another assay addresses HLA-B*46:01. Described as above.
A further assay concerns the target HLA-B*48:01. The assay is described as above. The note with it: source organism: Orthohantavirus andesense.
The target in a further assay is HLA-B*57:01. The description is as above.
For the next assay, the target named is HLA-B*58:01. The description is as above. The note with it: source organism: Orthohantavirus andesense.
Assay [1] deals with HLA-A*26:01. Description: IEDB peptide-MHC binding, purified MHC/competitive/fluorescence; filed as Kd, often an IC50 or EC50 that approximates it; ≥ and ≤ were set here for values at or beyond the usual limits of such assays. The note with it: source organism: Lechiguanas virus.
In assay [2] the target is HLA-B*15:17. Described as above. The note with it: source organism: Lechiguanas virus.
In assay [3] the target is HLA-B*27:03. Described as above. The note with it: source organism: Lechiguanas virus.
For assay [4], the target named is HLA-B*39:01. The assay is described as above. The note with it: source organism: Lechiguanas virus.
In assay [5] the target is HLA-B*51:01. Described as above. The note with it: source organism: Lechiguanas virus.
A further assay has as its target HLA-A*02:03. Description: IEDB peptide-MHC binding, purified MHC/direct/fluorescence; filed as Kd, often an IC50 or EC50 that approximates it; ≥ and ≤ were set here for values at or beyond the usual limits of such assays.
The next assay has as its target HLA-A*02:11. The description is as above.
A further assay has as its target HLA-A*02:16. The assay is described as above.
The target of the next assay is HLA-A*02:19. The description is as above.
For assay [6], the target named is HLA-A*26:01. Described as above.
Assay [7] addresses HLA-B*15:17. The assay is described as above.
The target of assay [8] is HLA-B*27:03. The description is as above.
The target in assay [9] is HLA-B*51:01. The assay is described as above.
The target in assay [10] is HLA-B*39:01. Described as above. The note with it: source organism: Vibrio cholerae O395.
Setting [11] is: source organism: Orthohantavirus andesense.
The mark [12] stands for this setting: source organism: Rio Mamore hantavirus.
Setting [13] is: source organism: Giardia lamblia ATCC 50803.
Setting [14] is: source organism: Vibrio cholerae O395.

pKd: −log10 of the molar value.

On to YRRKLTNPA, for which the pKd with HLA-A*01:01, in the assay with HLA-A*02:01 (setting [11]), with HLA-A*02:12 (setting [12]), in the assay with HLA-A*03:01 (setting [11]), in the assay with HLA-A*11:01 and in the assay with HLA-A*23:01 (setting [12]) was at most 4.70 throughout. Besides, the pKd with HLA-A*24:03 (setting [12]), with HLA-A*29:02 (setting [11]), with HLA-A*31:01, with HLA-A*68:02 (setting [12]), with HLA-A*69:01 (setting [11]) and with HLA-B*07:02 was at most 4.70 throughout. Besides, the pKd is 5.95 with HLA-B*08:01; at most 4.70 with HLA-B*15:01 (setting [11]); at most 4.70 with HLA-B*18:01 (setting [11]); at most 4.70 in the assay with HLA-B*27:05; at most 4.70 with HLA-B*40:01; at most 4.70 with HLA-B*44:02. Also, the negative logarithm of the Kd (pKd) with HLA-B*46:01 (setting [11]), in the assay with HLA-B*48:01, with HLA-B*57:01 (setting [11]), in the assay with HLA-B*58:01, with HLA-A*26:01 [1] and with HLA-B*15:17 [2] was at most 4.70 each time. Also, the negative logarithm of the Kd (pKd) with HLA-B*27:03 [3], in the assay with HLA-B*39:01 [4] and with HLA-B*51:01 [5] was at most 4.70 throughout.
For MHDPHSIPL, the pKd with HLA-A*02:01 (setting [13]), with HLA-A*02:03 (setting [13]), with HLA-A*02:11 (setting [13]), in the assay with HLA-A*02:12 (setting [13]), with HLA-A*02:16 (setting [13]) and with HLA-A*02:19 (setting [13]) was at most 4.70 each time. Further, the pKd in the assay with HLA-A*03:01 (setting [13]), with HLA-A*23:01 (setting [13]), with HLA-A*24:03 (setting [13]), in the assay with HLA-A*26:01 [6] (setting [13]), with HLA-A*29:02 (setting [13]) and with HLA-A*68:02 (setting [13]) was at most 4.70 throughout. The pKd with HLA-A*69:01 (setting [13]), with HLA-B*15:01 (setting [13]), in the assay with HLA-B*15:17 [7] (setting [13]), in the assay with HLA-B*18:01 (setting [13]), with HLA-B*27:03 [8] (setting [13]) and with HLA-B*46:01 (setting [13]) was at most 4.70 each time. Moreover, the negative-log Kd (pKd) in the assay with HLA-B*51:01 [9] (setting [13]) and with HLA-B*57:01 (setting [13]) was at most 4.70 each time.
In the case of VVSEIDLQW, the pKd with HLA-A*02:01 (setting [14]), with HLA-A*02:03 (setting [14]), with HLA-A*02:11 (setting [14]), with HLA-A*02:12 (setting [14]), with HLA-A*02:16 (setting [14]) and with HLA-A*02:19 (setting [14]) was at most 4.70 each time. The pKd with HLA-A*03:01 (setting [14]), with HLA-A*23:01 (setting [14]), with HLA-A*24:03 (setting [14]), with HLA-A*26:01 [6] (setting [14]), with HLA-A*29:02 (setting [14]) and with HLA-A*68:02 (setting [14]) was at most 4.70 throughout. Besides, the negative logarithm of the Kd (pKd) in the assay with HLA-A*69:01 (setting [14]) is at most 4.70; with HLA-B*15:01 (setting [14]), at most 4.70; with HLA-B*15:17 [7] (setting [14]), 8.70; in the assay with HLA-B*18:01 (setting [14]), at most 4.70; in the assay with HLA-B*27:03 [8] (setting [14]) it was at most 4.70; with HLA-B*39:01 [10], at most 4.70. For the same sequence, the pKd in the assay with HLA-B*46:01 (setting [14]), with HLA-B*51:01 [9] (setting [14]) and with HLA-B*57:01 (setting [14]) was at most 4.70 each time.
